In patent CN116655791A (ZHEJIANG CHUQI BIOLOGICAL TECH CO LTD, dated 2023):

Target: T1, 人泌乳素受体-ECD蛋白 (25-234aa, Factor Xa site, 6xHis) (human)
T1 chain: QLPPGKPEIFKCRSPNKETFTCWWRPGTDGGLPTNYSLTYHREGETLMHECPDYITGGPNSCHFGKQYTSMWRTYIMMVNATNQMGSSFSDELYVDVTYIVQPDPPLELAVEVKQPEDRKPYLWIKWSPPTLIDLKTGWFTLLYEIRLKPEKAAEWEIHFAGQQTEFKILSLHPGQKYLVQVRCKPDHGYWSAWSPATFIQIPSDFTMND
Experiment: indirect ELISA on coated PRLR-ECD

EC50: 4.6 ng/mL
B1: 抗泌乳素受体的纳米抗体融合蛋白CQ24-Fc (Fc fusion)
chain: SQVQLVESGGGSVQAGGSLRLSCVASGYTRRGNCLGWFRQAPGKEREGVASIYASSGWTSYADSVKGRFTISLDNAKTMVYLQMNSLNPEDTAMYFCAAADTGLCGLGARIYSYWGQGTQVTVSSDKTHTCPPCPAPEAAGGPSVFLFPPKPKDTLMISRTPEVTCVVVDVSHEDPEVKFNWYVDGVEVHNAKTKPREEQYNSTYRVVSVLTVLHQDWLNGKEYKCKVSNKALPAPIEKTISKAKGQPREPQVYTLPPSREEMTKNQVSLTCLVKGFYPSDIAVEWESNGQPENNYKTTPPVLDSDGSFFLYSKLTVDKSRWQQGNVFSCSVMHEALHNHYTQKSLSLSLGK
notes: the signal peptide is left out here; also called CQ24纳米抗体; CQ24-VHH
